In assay [1] the target is T1, PTH receptor of UMR106 cell line (rat osteoblast-like osteosarcoma cell line) (rat, UniProt P25961 27-591).
T1 sequence (looked up): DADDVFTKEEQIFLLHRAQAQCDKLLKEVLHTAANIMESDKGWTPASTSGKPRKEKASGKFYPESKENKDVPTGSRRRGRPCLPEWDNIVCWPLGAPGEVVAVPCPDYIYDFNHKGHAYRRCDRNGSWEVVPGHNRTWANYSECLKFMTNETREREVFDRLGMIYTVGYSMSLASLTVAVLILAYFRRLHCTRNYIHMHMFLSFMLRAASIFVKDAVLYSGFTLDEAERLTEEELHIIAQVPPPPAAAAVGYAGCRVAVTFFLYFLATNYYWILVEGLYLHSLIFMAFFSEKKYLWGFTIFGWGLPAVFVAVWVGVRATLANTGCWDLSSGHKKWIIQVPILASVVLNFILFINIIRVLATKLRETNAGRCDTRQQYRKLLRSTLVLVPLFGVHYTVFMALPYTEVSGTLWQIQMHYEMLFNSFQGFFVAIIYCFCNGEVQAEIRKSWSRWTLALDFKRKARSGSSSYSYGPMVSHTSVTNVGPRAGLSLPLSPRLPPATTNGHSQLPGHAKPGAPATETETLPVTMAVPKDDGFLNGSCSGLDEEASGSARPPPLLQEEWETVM
The experiment in a line: cell-based or functional assay.

In assay [2] the target is T1, PTH receptor of UMR106 cell line (rat …). In words: competition with 125I-(Nle8,18Tyr34)-bPTH (1-34) for binding to UMR106 cells, 15 C, 4 h. On the procedure:
A binding test to PTH receptor was carried out as followings (see: Chohei Shigeno et al., The Journal of Biological Chemistry, 263(8):3864–3871(1988)): 10^5 UMR106 cells per well was added into a 24 well-plate and cultured for 4 to 8 days. Medium was exchanged every two days and it was exchanged daily at 3 days before the test. On the other hand, in order to prepare (Nle^{8,18}Tyr^34)-bovine PTH (1–34)-NH_2(bPTH (1–34)) (see: Gino V. Segre et al., JBC, 254(15) :6980–6986(1979)) which was labelled with a radioactive isotope, ^125I at a tyrosine residue of carboxy-terminus, bPTH (1–34) was iodinated with Na^125I using chloramine T (Sigma Chemical Co., USA) as a catalyst. […]
Binding affinity of PTH to its receptor was determined by comparing competitive inhibition of rhPTH (1–84) and shPTH (1–84) against ligand binding to the receptor by using the ^125I-labelled (Nle^{8,18}Tyr^34)-bPTH (1–34) as a ligand. […] The solution obtained after extraction was mixed with the solution obtained after washing with 0.5 ml of the binding buffer and counted for its radioactivity employing γ-counter.
Specific binding was determined by subtracting value of nonspecific binding measured by using each competitive hormone of 1 mM from value of binding radioactivity measured above.

The IC50 is the concentration that inhibits the measured activity by half. Low readings indicate greater potency, high ones weaker potency.

B1: synthetic human PTH (shPTH (1-84), Sigma Chemical Co., USA) (ligand, UniProt P01270 32-115, looked up)
chain: SVSEIQLMHNLGKHLNSMERVEWLRKKLQDVHNFVALGAPLAPRDAGSQRPRKKEDNVLVESHEKSLGEADKADVNVLTKAKSQ
notes: mature; Control hormone, bought; also called synthetic PTH
On to B1, for which the “EC50 (concentration of hormone required for stimulating production of intracellular cAMP to reach an increase of 50%)” value in assay [1] worked out at 1.9 nM. Besides, in assay [2], the IC50 turned out to be 18.6 nM.

B2: human recombinant PTH (rhPTH (1-84)) (ligand, UniProt P01270 32-115, looked up)
chain: B1 chain
notes: mature; also called recombinant human PTH; purified human PTH
In the case of B2, in assay [1], the “EC50 (concentration of hormone required for stimulating production of intracellular cAMP to reach an increase of 50%)” value was found to be 1.3 nM. In addition, the IC50 in assay [2] turned out to be 17.3 nM.

(Values after US6500647 (MOGAM BIOTECHNOLOGY RESEARCH INSTITUTE, dated 2002).)
